Test results: the Human Domainome abundance scans (Beltran et al. 2025)

B1: CD2-associated protein, residues 109 to 169; numbered along this chain, Q9Y5K6 (parent)
chain: KKRQCKVLFEYIPQNEDELELKVGDIIDINEEVEEGWWSGTLNNKLGLFPSNFVKELEVTD
B2: Dynamin-binding protein, residues 146 to 206; numbered along this chain, Q6XZF7 (parent)
chain: SMGQARALMGLSAQLDEELDFREGDVITIIGVPEPGWFEGELEGRRGIFPEGFVELLGPLR

Variants of: B1
Assay: abundance fitness (aPCA) (normalised: wild type 0, dead -1); higher = more abundant; growth selection in yeast, the domain comes from the species named
Conditions: Homo sapiens

Abundance fitness of substitutions, site by site:
K2: M 0.011; G -0.007; E 0.145; N -0.227; A -0.197; P -0.293; F -0.51; S -0.754; R -0.334
K1: N 0.265; I -0.241; D 0.195; R -0.181; Y -0.172; V -0.367; C -0.232; Q -0.316; T 0.113; F -0.351; S -0.249; M -0.184; G -0.122

Variants of: B2
Assay: as above
Conditions: Homo sapiens

Abundance fitness: each site, then its substitutions
I48: R 0.012; G -1.01; P -0.651; A -0.777; V -0.007
G36: M -0.584; D -0.824; E -0.958; R -0.709; L -0.831; K -0.347; Q -0.797
I29: Q -0.082; A -0.665; P -0.595; N -0.461; Y -0.997; F -0.924
A13: E -0.57; P 0.013; H -0.548; T 0.353; I -0.541; Q -0.348
F49: D -0.74; K -0.655; W -1.1
E41: N -0.608; S -0.806; I -0.073; Q -0.267; V -0.148; A -0.32; M -0.211; F -0.6; W -0.773
G10: R -0.014; E -0.14; Q -0.016; L -0.436
P33: K -0.215; N -1.07; T -0.386; Y -0.587; D -1.11; R -0.155; S -0.65; C -0.792; I -0.494; F -0.693; L -0.615; W -0.711; V -0.435; A -0.971; G -0.469; H -0.27
F53: Y 0.059; E -0.486
G40: F -0.901; L -0.762; Y -0.604; Q -0.974; P -0.502; E -0.685; K -0.906
I27: K -0.73; D -0.694; G -0.627; S -0.753; E -0.773
L11: V -0.402; Q 0.191
E43: W -0.747; D 0.089; L -0.527; M 0.06
W37: H -0.326; S -0.62; G -0.652; M -0.019
G47: V -0.719; I -1.06; E -0.962; L -0.696; Q -0.861; D -0.804; K -0.839
R45: G -0.961; W -0.958
R22: C 0.081; I -0.191; W -0.542; Q -0.027; L -0.282; Y -0.352
E39: R -0.141; S -0.339
M9: T 0.017; F -0.225; C -0.013
L19: A -0.525; K -0.705; D -0.413; H -0.768; C -0.684
G24: F -0.82; I -0.897; H -0.679; N -0.253; A -0.551; P -0.749; E -0.593; Q -0.733; R -0.778; V -0.701; T -0.818; Y -0.729; W -0.891
E17: C 0.07; T -0.101
E51: S -0.053; P -0.792; F -0.621; N -0.66; Q -0.074
I30: C -0.599; L -0.085; A -0.374; M -0.481; K -0.129; Y -0.286; R -0.284
R61: D -0.053; S -0.017; I -0.135; Y -0.148; K 0.47; F -0.363; V 0.019; T -0.046; L 0.336; H -0.153; N -0.054; P 0.123; E -0.018; C -0.234; G -0.123
V54: E -0.81; G -0.708; K -0.671; I -0.947; N -0.674
L42: D -0.975; T -0.769; P -0.5; K -0.316
P50: D -0.797; Y -0.794; E -0.509; L -0.655; H -0.333; S -0.674; K -0.212; F -0.669; R -0.068; N -0.371; C -0.93; M -0.38; G -0.621; I -0.691; A -0.736; V -1.02; Q -0.314
L8: S -0.305; T 0.014
F38: H -1.08; W -0.667; K -0.503; Q -1.12; P -0.994
E55: N -0.939; K -0.253
G58: E 0.082; T -0.079; Q -0.013; H -0.23
R46: Q -0.571; C -0.303; Y -0.698
P35: N -0.471; C -0.363; G -0.743; M -0.473; R -0.309; T -0.064; W -0.926; D -0.062; I -0.642; Q -0.203; E -0.018; V -0.202; F -0.717; A -0.116; S -0.292
G44: H -0.665; V -0.884; Q -0.683
G52: R 0.117; A 0.111; E -0.189; L -0.29; Y -0.064; M 0.046; H 0.404; I 0.04; T -0.083; W -0.053
P59: T -0.685; K -0.889; M -0.386
D25: F -0.518; M -0.724; K -1.03
Q14: I -0.354; R 0.142; Y -0.537; V -0.175; D -0.145; K -0.092
L56: R -0.399; V -0.152; I -0.42
V32: F -0.446; C -0.12; P -1.04; K -0.349; G -0.599; Q 0.189; N -0.232
T28: C -0.941; W -0.809; S 0.011; E 0.016
E18: I -0.212; N -0.236; G -0.17; K 0.23
L15: Q 0.137; S 0.283; G 0.08; T 0.273; F 0.037; E 0.034
S12: E -0.426; L -0.641; M -0.083
E34: S -0.129; Q -0.364; M -0.398; R 0.025; G -0.379; L -0.611; I -0.055; A -0.42
G31: W -0.955; K -0.085; T -0.717; P -0.121; Y -0.975
L60: M -0.062; P -0.368; Y -0.862; G -0.176; A -0.387
F21: E -0.481; T -0.465; I -0.435; N -0.832; V -0.711
V26: S -0.704; R -0.353; M -0.154; T -0.319; H -0.279; F -0.464; C -0.45; Q -0.532; Y -0.416; P -0.64; W -0.554; L 0.043; N -0.594; E -0.27; K -0.311; G -0.687
D16: F -0.763; N -0.315
L57: I -0.176; Y -0.578; T -0.437; P -0.655; A -0.57; D -0.429; R -0.43; Q -0.258; H -0.629; K -0.585; N -0.375; W -1.03; E -0.695; M -0.251; V -0.24
